This is an account of results in patent publication US20240287208A1 (CONCEPT TO MEDICINE BIOTECH, published 2024).

Assay [1] concerns the target T1, human CD40 on the cell surface (human, UniProt P25942 21-277).
T1 construct: whole, on cells; also called cell surface CD40; Jurkat-CD40
The assay can be described thus: FACS, human dendritic cells, MFI. Background: Flow cytometry measures light scatter and fluorescence of single cells or particles in a stream.

Assay [2] deals with T2, human 5T4 (human, UniProt Q13641 32-355, limits assumed).
T2 construct: also called hu5T4
T2 sequence (looked up): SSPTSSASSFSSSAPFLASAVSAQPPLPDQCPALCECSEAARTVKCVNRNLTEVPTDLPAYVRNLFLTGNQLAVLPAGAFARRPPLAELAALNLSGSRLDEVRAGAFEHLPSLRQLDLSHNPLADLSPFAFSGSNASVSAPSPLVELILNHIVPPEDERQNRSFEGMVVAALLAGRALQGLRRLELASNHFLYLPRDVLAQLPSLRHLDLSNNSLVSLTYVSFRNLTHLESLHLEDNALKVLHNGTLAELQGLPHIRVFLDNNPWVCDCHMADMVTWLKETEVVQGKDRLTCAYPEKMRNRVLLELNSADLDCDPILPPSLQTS
The assay can be described thus: competitive ELISA on human 5T4.

The target in assay [3] is T1, human CD40 on the cell surface. Nature of the assay: FACS, Jurkat cells overexpressing human CD40, PE anti-human IgG, MFI. How it is done:
To evaluate their binding affinity to cell surface CD40, chimeric anti-CD40 monospecific antibodies were tested in Jurkat cell lines that overexpressed CD40 by FACS. A total number of 1×10⁵ Jurkat-CD40 cells in each well were incubated with 10-fold serially diluted antibodies starting from 100 nM for 30 minutes at 4° C. in FACS buffer. After wash by FACS buffer, PE conjugated-anti-human IgG antibody was added to each well and incubated at 4° C. for 30 minutes. After wash, MFI of PE was evaluated by MACSQuant Analyzer 16.

Assay [4] has as its target T3, cynomolgus CD40-His protein (cynomolgus, UniProt G7PG38 21-193).
T3 construct: His-tagged recombinant protein; also called cyno CD40 antigen
Nature of the assay: ELISA, plate-coated cynomolgus CD40-His. How it is done: (§1) To evaluate the binding activity of clones 42p155, 2p834, 2p931, 42p655, 2p1294, 2p957, 42p495, 3p78, 2p415, 2p442, 2p551, 2p80 and 2p1130, the chimeric monospecific antibody (mAb) from these clones were subjected to ELISA test, along with selicrelumab, the clinical benchmark anti-CD40 agonist antibodies.
The binding affinity of these clones to cynomolgus CD40 was also tested. Microtiter plates were coated with cynomolgus CD40-His protein at 1.0 μg/ml in PBS, 100 µl/well at 4° C. overnight, then blocked with 150 µl/well of 1% BSA. Ten-fold dilutions of 42p155, 2p834, 2p931, 42p655, 2p1294, 2p957, 42p495, 3p78, 2p415, 2p442, 2p551, 2p80 and 2p1130 antibodies starting from 100 nM were added to each well and incubated for 1 hour at RT. The plates were washed with PBS/Tween and then incubated with Anti-Human IgG (H&L) (GOAT) Antibody Peroxidase Conjugated for 30 mins at RT. After washing, the plates were developed with TMB substrate and analyzed by spectrophotometer at OD 450 nm. As shown in FIG. 1B and Table 2, all these clones bound to cynomolgus CD40 at high activity, showing good cross-reactivity between human and cynomolgus CD40 proteins.
A general note: In an ELISA, binding on a coated surface is turned into a signal by an enzyme label.

In assay [5] the target is T4, human CD40-His protein (human, UniProt P25942 21-193).
T4 construct: His-tagged recombinant protein; also called human CD40-his tag; recombinant CD40 protein
Nature of the assay: ELISA, plate-coated human CD40-His. How it is done:
as §1
(§2) Briefly, microtiter plates were coated with human CD40-His protein at 1.0 μg/ml in PBS, 100 μl/well at 4° C. overnight, then blocked with 150 µl/well of 1% BSA. Ten-fold dilutions of 42p155, 2p834, 2p931, 42p655, 2p1294, 2p957, 42p495, 3p78, 2p415, 2p442, 2p551, 2p80 and 2p1130 antibodies starting from 100 nM were added to each well and incubated for 1 hour at RT. The plates were washed with PBS/Tween and then incubated with Anti-Human IgG (H&L) (GOAT) Antibody Peroxidase Conjugated for 30 mins at RT. After washing, the plates were developed with TMB substrate and analyzed by spectrophotometer at OD 450 nm.

Assay [6] addresses T1, human CD40 on the cell surface. Nature of the assay: cell-based or functional assay.
The target in assay [7] is T5, human 4-1BB protein (human, UniProt Q07011 24-186).
T5 construct: also called 4-IBB
Nature of the assay: ELISA, plate-coated protein. How it is done:
(§3) To evaluate the cross reactivity of chimeric anti-CD40 antibodies to other family members of TNF receptors, the ELISA binding towards human 4-1BB and human OX40 were performed.
as §2, with “4-1BB protein or human OX40” for “CD40-His”, “1” for “1.0”, “μl/well” for “µl/well”

Assay [8] has as its target T6, human OX40 protein (human, UniProt P43489 29-216, limits assumed).
T6 sequence (looked up): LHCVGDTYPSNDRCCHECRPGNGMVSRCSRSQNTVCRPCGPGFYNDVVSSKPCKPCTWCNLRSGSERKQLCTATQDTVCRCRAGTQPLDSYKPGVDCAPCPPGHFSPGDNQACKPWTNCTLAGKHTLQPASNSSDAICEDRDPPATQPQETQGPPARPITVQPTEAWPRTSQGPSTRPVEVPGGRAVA
Nature of the assay: ELISA, plate-coated protein. How it is done:
as §3
as §2, with “4-1BB protein or human OX40” for “CD40-His”, “1” for “1.0”, “μl/well” for “µl/well”

Assay [9] addresses T4, human CD40-His protein. The assay can be described thus: SPR Biacore T200, antibody captured on Protein A, CD40-His as analyte. How it is done:
Bispecific antibodies with each of the 42p155, 2p834, 2p931, 42p655, 2p1294, 2p957, 42p495, 3p78, 2p415, 2p442, 2p551 and 2p1130 clones, as well as 2p80 monospecific antibody, were captured using Protein A chip. A serial dilution of human CD40-his tag protein was injected over captured antibody for 2 mins at a flow rate of 30 μl/min. The antigen was allowed to dissociate for 6 min. All the experiments were carried out on a Biacore T200. Data analysis was carried out using the Biacore T200 evaluation software.

T4 sequence (P25942 21-193 limits assumed): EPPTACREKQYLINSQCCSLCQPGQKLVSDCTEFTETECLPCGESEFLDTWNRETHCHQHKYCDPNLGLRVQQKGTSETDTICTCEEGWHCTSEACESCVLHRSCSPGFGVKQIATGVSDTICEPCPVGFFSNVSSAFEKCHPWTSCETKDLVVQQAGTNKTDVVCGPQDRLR
T1 sequence (P25942 21-277): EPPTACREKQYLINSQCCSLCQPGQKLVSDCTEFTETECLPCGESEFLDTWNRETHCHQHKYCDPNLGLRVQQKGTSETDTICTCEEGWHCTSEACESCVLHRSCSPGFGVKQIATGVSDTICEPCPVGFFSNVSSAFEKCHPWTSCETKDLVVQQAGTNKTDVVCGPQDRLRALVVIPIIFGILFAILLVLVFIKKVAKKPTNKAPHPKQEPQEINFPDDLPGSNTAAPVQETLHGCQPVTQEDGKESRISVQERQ

B1: b16 (42p155z2)-LALA humanized anti-5T4/CD40 bispecific antibody (bispecific antibody, human IgG1, kappa, L234A L235A)
heavy 1: QVQLVQSGAEVKKPGASVKVSCKASGYAFSSSWMNWVRQAPGQGLEWMGRIYREDGHTNYNGKFKGRVTMTADKSITTAYMELSRLRSDDTAVYYCANGGAMDYWGQGTLVTVSSASTKGPSVFPLAPSSKSTSGGTAALGCLVKDYFPEPVTVSWNSGALTSGVHTFPAVLQSSGLYSLSSVVTVPSSSLGTQTYICNVNHKPSNTKVDKKVEPKSCDKTHTCPPCPAPEAAGGPSVFLFPPKPKDTLMISRTPEVTCVVVDVSHEDPEVKFNWYVDGVEVHNAKTKPREEQYNSTYRVVSVLTVLHQDWLNGKEYKCKVSNKALPAPIEKTISKAKGQPREPQVCTLPPSREEMTKNQVSLSCAVKGFYPSDIAVEWESNGQPENNYKTTPPVLDSDGSFFLVSKLTVDKSRWQQGNVFSCSVMHEALHNHYTQKSLSLSPGK
light: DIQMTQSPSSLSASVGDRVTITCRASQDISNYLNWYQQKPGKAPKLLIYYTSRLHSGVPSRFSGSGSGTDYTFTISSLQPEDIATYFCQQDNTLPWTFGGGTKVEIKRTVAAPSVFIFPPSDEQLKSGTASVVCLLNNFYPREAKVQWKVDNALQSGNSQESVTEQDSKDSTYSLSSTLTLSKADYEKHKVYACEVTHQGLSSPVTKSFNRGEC
heavy 2: not shown
As usually defined, the EC50 (read off the curve) is the midpoint of the concentration-response curve. Low values mean an effect from little substance, high ones a need for much substance. As to B1, the 50% effective concentration (EC50 (read off the curve)) in [1] is about 0.5 nM.

B2: 159D5 anti-5T4 mouse monoclonal antibody (antibody, V domains shown)
VH: DVQLVESGGGLVQPGGSRKLSCTASGFTFSNFGMHWVRQAPETGLEWVAYISSGSSTFYYADSVKGRFTISRDNPKNTLFLQMTSLRSEDTAMYFCARSPAYYRYGLDYWGQGTTLTVSS
VL: DIVLTQSPASLAVSLGQRATISCRASQSVSSSTFSYMHWYQQKPGQPPKLLIKSSSNLESGVPARFSGSGSGTDFTLNIHPVEEEDTATYYCQHSWEIPYTFGGGTKLEIK
notes: Mouse monoclonal antibody from hybridoma
Regarding B2, in assay [2], the binding result is “binds”.

B3: 2p834 chimeric monospecific antibody (antibody, V domains shown)
VH: QSQLVESGGGLVQPGGSLRLSCAASGFAFRRYTMSWVRQAPGKGLEWVSTITHNGSITTYAESAQGRFTISRDNAKNTLYLQMNSLKPEDTAVYYCAQGGGSNYYRESWGQGTQVTVSS
notes: Chimeric monospecific antibody
By EC50 is commonly meant the concentration needed to bring the measured effect to its halfway point. As to B3, the “EC50 (read off the curve)” value in assay [3] was about 0.2 nM. Also, the EC50 in [4] was 0.2 nM; in assay [5] it was 0.76 nM. The “CD40 NF-κB luciferase reporter (Jurkat), RLU” value (from here on “CD40 NF-κB luciferase reporter”) in assay [6] was over 10 nM. Besides, the binding result in assay [7] and in [8] was “no binding (tested: 100 nM (highest concentration))” throughout.

B4: 3p78 chimeric monospecific antibody (antibody, V domains shown)
VH: PVQLVESGGGLVQPGGSLRLSCAASGFTFRNYAMSWVRQAPGKGLEWVSTITHNGAITTYAESAQGRFTISRDNAKNTLYLQMNSLKPEDTAVYYCAQGGGSNYYRESWGQGTQVTVSS
notes: as for B3
On to B4, for which the “EC50 (read off the curve)” value in assay [3] is about 2 nM. Besides, the EC50 in assay [4] is 2.84 nM; in assay [5] it was 2.95 nM. Besides, the “CD40 NF-κB luciferase reporter” value in assay [6] is over 10 nM. The binding result in assay [7] and in assay [8] was “no binding (tested: 100 nM (highest concentration))” each time.

B5: 393E9 anti-5T4 mouse monoclonal antibody (antibody, V domains shown)
VH: EVKLVESGGGLVQPGGSLSLSCAASGFTFTDYYMSWVRQPPGKALEWLGFIRNKGNGYTTENSASVKGRFTISRDNSQSILYLQMNALRAEDSATYYCARYRGNPHYAMDYWGQGTSVTVSS
VL: DIVLTQFPASLAVSLGQRATISCRASESVEFYGTSFLQWYQQKPGQPPKLLIYGASNVESGVPARFSGSGSGTDFSLSIHPVEEDDIAMYFCQQSRKVPSTFGGGTKLEIK
notes: as for B2
For B5, in assay [2], the binding result is recorded as “binds”.

B6: 14G12 anti-5T4 mouse monoclonal antibody (antibody, V domains shown)
VH: EVQLQQSGPELVKPGASVKISCKASGYAFSSSWMNWVKQRPGKGLEWIGRIYREDGHTNYNGKFKGKATLTADKSSTTAYMQLTSLTSEDSAVYFCANGGAMDYWGQGTSVTVSS
VL: DIQMTQSTSSLSASLGDRVTISCRASQDISNYLNWYQQKPDGTVKLLIYYTSRLHSGVPSRFSGSGSGTDYSLTISNLEQEDIATYFCQQDNTLPWTFGGGTKLEIK
notes: as for B2
For the molecule B6, the binding result in assay [2] is “binds”.

B7: 286B4 anti-5T4 mouse monoclonal antibody (antibody, V domains shown)
VH: DVQLHESGPGLVKPSQSLSLTCSVTGYSITNNYYWNWIRQFPGNNLEWMGYITYDGSNNYNPSLKNRISVTRDTSKNQFFLKLSSVTTEDTATYYCTRGGGQLRFDYWGQGTTLTVSS
VL: SIVMTQTPKFLIVSAGDRVTITCKASQSVSNEVTWYQQKPGQSPKMLIYYASNRYTGVPDRFTGSGYGTDFTFTINTVQAEDLAIYFCQQDYSSPWTFGGGTKLEIK
notes: as for B2
With B7, the binding result in [2] is “binds”.

B8: 2p931 chimeric monospecific antibody (antibody, V domains shown)
VH: AVQLVESGGGLVQPGGSLRLSCAASGFSFRNYMMNWVRQAPGKGLECLSSITSAGDITSYTESVKGRFTISRDNAKNTLYLQMNSLKPEDTAVYYCAQGGCGNYYRESWGQGTQVTVSS
notes: as for B3
On to B8, for which, in assay [3], the “EC50 (read off the curve)” value was about 0.2 nM. In addition, the EC50 was 0.26 nM in assay [4] and 0.99 nM in assay [5]. Further, the “CD40 NF-κB luciferase reporter” value in [6] is over 10 nM. Besides, the binding result in assay [7] and in [8] was “no binding (tested: 100 nM (highest concentration))” throughout.

B9: 2p80 chimeric monospecific antibody (antibody, V domains shown)
VH: QLQLVESGGGLVQAGGSLRLSCAASGRIFSSYAMSWFRQAPGKEREFVATIGWIGENTYYADSVKGRFTISRDNAKNTLYLQMNSLKPEDTAVYYCAAGLPANRYYDYWGQGTQVTVSS
notes: Chimeric monospecific antibody; also called 2p80 cAb
The Kd is the concentration at which binding is half-saturated. One may read the koff as a measure of how fast the partners let go of each other. A high value points to fast dissociation. As usually defined, the kon is the second-order rate constant of association. For B9, binding in assay [9] was put at a Kd of 213 nM. In assay [9], this molecule showed a koff of 0.000293 s⁻¹. Besides, the kon in [9] turned out to be 1380 M⁻¹ s⁻¹. Also, the EC50 worked out at 8.29 nM in [4] and 3.08 nM in assay [5]. Further, the “CD40 NF-κB luciferase reporter” value in [6] was over 10 nM. Also, the binding result in assay [7] and in [8] was “no binding (tested: 100 nM (highest concentration))” throughout.
